In publication PMC11783328:

B1: 21M20 Fab (Fab, V domains shown)
VH: EVQLVESGGGLAKPGGSLRLSCAASGFTFSRSIMHWVRQAPGKGLEWVSTINYAGSTYYADSVRGRFVISRDNSKNTLSLQMNSVRPEDRAVYHCAKDKEGYYSGGYPLWYFDLWGPGTPVTISS
VL: DVQMTQSPSSLSASVGDKVSITCRASQGIADALAWYQQKPGKAPKLLIYGASNLESGVPSRFSGSGSGTDFSLTISSLQAEDFAVYYCQQRNSHPPTFGQGTRVEVK
B2: 21N13 Fab (Fab, V domains shown)
VH: QVQLQESGPGRVKPSETLSLTCAVSDDSFGSSYFYWSWIRQAPGKGLEWIGYIAYSGGVRYNPSLSSRVTISRNIHERQFYLRLTSMTAADTAVYYCARHCEDDYGYYSAAQSYGLDSWGQGIAVTVSP
VL: DIQMTQSPSSLSASVGDRVTITCRTSENVNNCLNWYQQKPGKAPKLLIYRTSTLQRGVPSRFSGTGSGTDYTLTISSLQSEDFGTYYCQHYYGTPLTFGGGTMVDIK

Assays:
[1] = molecular target: BG505 SOSIP.v4.1-GT1.1 (HIV-1 (isolate BG505)) (UniProt Q2N0S6); assay: cryo-EM structure
[2] = molecular target: BG505 SOSIP.v4.1 GT1.1 trimer (BG505 SOSIP germline trimer 1.1) (HIV-1 (isolate BG505)) (UniProt Q2N0S6); assay: cryo-EM structure

| Binder | stoichiometry N (Ab:Env trimer) [1] | stoichiometry N [2] |
| --- | --- | --- |
| B1 | 1 |  |
| B2 |  | 3 |
